The values that follow come from patent US20240294622A1.

Experiment [1] addresses HGREM1-His (ACRO) (human) (UniProt O60565). Nature of the experiment: blocking ELISA, Human Gremlin-1 binding to BMP7; column OD450.
Experiment [2] shares this target. Nature of the experiment: blocking ELISA, Human Gremlin-1 binding to BMP4; column Percentage. Background: In an ELISA, binding on a coated surface is turned into a signal by an enzyme label.
For experiment [3], the target named is hGREM1 (source and construct not stated) (human) (UniProt O60565). Briefly: ELISA on hGREM1.
For experiment [4], the target named is HGREM1-His (ACRO) (human) (UniProt O60565). Briefly: Fortebio: Gremlin-his loaded (2ug/ml), antibody at 100 nM; unit from the axis of the sensorgram. On the technique in general: Biolayer interferometry detects binding as a change in optical thickness at a sensor tip.
For experiment [5] the target is unchanged. Nature of the experiment: blocking ELISA, Human Gremlin-1 binding to BMP2; column Percentage.
Experiment [6] shares this target. Briefly: blocking ELISA, Human Gremlin-1 binding to BMP7; column Percentage.
For experiment [7] the target is unchanged. Nature of the experiment: competition ELISA, Gremlin-his binding to coated BMP7.
For experiment [8] the target is unchanged. Nature of the experiment: blocking ELISA, Human Gremlin-1 binding to BMP4; column OD450.
For experiment [9] the target is unchanged. Briefly: ELISA: antibody coated, Gremlin-his titrated, anti-his-HRP; the concentration is that of Gremlin-his.
The target is the same in experiment [10]. Nature of the experiment: Fortebio: Gremlin-his loaded (2ug/ml) on the sensor, antibody at 100, 50 and 25 nM.
Experiment [11] has the same target. Briefly: blocking ELISA, Human Gremlin-1 binding to BMP2; column OD450.
Experiment [12] has the same target. Briefly: Fortebio: Gremlin-his loaded (2ug/ml) on the sensor, antibody at 100, 50 and 25 nM; kdis(1/s).
Experiment [13] has the same target. Briefly: Fortebio: Gremlin-his loaded (2ug/ml), antibody at 25 nM; unit from the axis of the sensorgram.
Experiment [14] shares this target. Nature of the experiment: Fortebio: Gremlin-his loaded (2ug/ml), antibody at 50 nM; unit from the axis of the sensorgram.
The target is the same in experiment [15]. Nature of the experiment: ELISA, binding to hGremlin-his.

Chain of HGREM1-His (ACRO) (human) (O60565 25-184): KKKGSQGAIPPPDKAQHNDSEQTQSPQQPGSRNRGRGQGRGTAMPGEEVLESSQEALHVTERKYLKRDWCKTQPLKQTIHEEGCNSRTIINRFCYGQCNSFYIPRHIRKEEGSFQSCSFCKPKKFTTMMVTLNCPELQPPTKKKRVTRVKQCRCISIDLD
Chain of hGREM1 (source and construct not stated) (human) (O60565 25-184 limits assumed): as the sequence (O60565 25-184) above

B1: benchmark antibody 6245P (antibody, from another filing, V domains shown)
VH: EVQLVESGGGLVQPGGSLRLSCAASGFTFNSFWMSWVRQAPGKGLEWVANIKQDGSEKYYVDSVKGRFTISRDNAKNSVYLQMNSLRAEDTAVYYCARDLVTSFDYWGQGTLVTVSS
VL: DIQMTQSPSSLSASVGDRVTITCQASQDINNYLNWYQQKPGKAPKLLIYDASYLETGVPSGFSGSGSGTDFTFTISSLQPEDIATYYCQQYDSLPYTFGQGTKLEIK
A word on the IC50: it is the concentration at which inhibition is half-maximal. For orientation: EC50 means the concentration at which the effect is half-maximal. Read a low EC50 as an effect from little substance. As a reminder, the EC50 (read off the curve) is the midpoint of the concentration-response curve. A higher EC50 (read off the curve) goes with weaker potency. For orientation: Kd means the concentration at which binding is half-saturated. The low end stands for tighter binding, the high end for weaker binding. Usually kon stands for a measure of how fast the partners come together. A lower kon goes with slow association. In general, koff refers to the first-order rate constant of dissociation. A high value points to a short-lived complex. Take B1: the 50% inhibitory concentration (IC50) in experiment [1] was found to be 0.536 µg/mL; in experiment [2] it was 0.638 µg/mL; in experiment [5], 0.797 µg/mL; in experiment [6] it was 0.536 µg/mL; in experiment [8] it was 0.638 µg/mL; in experiment [11], 0.797 µg/mL. Moreover, the concentration giving a half-maximal response (EC50) in [3] came to 0.115 µg/mL; in experiment [15], 0.0575 µg/mL. For the same molecule, the Response in experiment [4] was 0.649 nm; in experiment [13], 0.313 nm; in [14], 0.513 nm. Moreover, in [7], the maximal blocking percentage is under 30%. The EC50 (read off the curve) in [9] worked out at 0.01 µg/mL. This molecule returned a Kd in [10] of 2.58 nM. Further, in experiment [10], the kon was found to be 338000 M⁻¹ s⁻¹. This molecule also registered a dissociation rate constant (koff) in [12] of 0.00087 s⁻¹.
